Reference: article PMC4735555 (2016)

Target: 2N5.1 TCR
Experiment: SPR; Mamu-B*098 loaded with C14nef5

B1: β2m-linked Mamu-B*098 protein (single-chain, refolded without C14nef5, biotinylated) (other)
chain: IQRTPKIQVYSRHPPENGKPNFLNCYVSGFHPSDIEVDLLKNGEKMGKVEHSDLSFSKDWSFYLLYYTEFTPNEKDEYACRVNHVTLSGPRTVKWDRDMGGGGSGGSGSGGGSSGSHSMRYFSTTVSRPGRGEPRFIVVGYVDDTQFVRFDSDAASPKMEPRAPWMEQEGPEYWEEQTRRVKDAAQTFRVSLGNLRGYYNQSEAGSHTLQTMSGCDLGPDGRLLRGYYQQAYDGRDYIALNEDLRSWTAADEAAQNTQRKWEAAGVAEQWRAYLEGECLESLRRYLENGKETLQRAEPPKTHVTHHPVSDHEATLRCWALGFYPAEITLTWQRDGEDQTQDTELVETRPGGDGTFQKWGAVVVPSGEEQRYTCHVQHEGLPEPLTLRWEPLHHILDAQKMVWNHR
modifications: biotin (BirA) on the biotinylation sequence peptide
B1 gave a Kd of 2500 nM.
